The values that follow come from patent US20120115739A1.

Assay [1] has as its target pepIII peptide (PepIII portion of EGFRvIII), 13-mer …. The assay is described as follows: eluted supernatant of sample blocked with free pepIII in the first round of binding, rebound to pepIII-conjugated beads, flow cytometry. In general terms: A flow cytometer gives signals particle by particle.
For assay [2] the target is unchanged. The assay is described as follows: eluted supernatant of unblocked sample rebound to pepIII-conjugated beads, flow cytometry.
Assay [3] shares this target. Nature of the assay: eluted supernatant mixed with pepIII-conjugated beads and free pepIII competitor in the second round, flow cytometry.

Turning to L8A4 anti-pepIII monoclonal antibody, the values for the antibody level (FIG. 2, fluorescence) in assay [1], in assay [2] and in assay [3] were 2.21, 31.2 and 2.57, respectively.
